A short description of this data set: self-splicing fitness, log relative to wild type (ln ratio); higher = more splicing; Tetrahymena group I intron in knt gene, E. coli kanamycin selection, DiMSum; sequences stand for … in CUCUCU…GGAGGGAAAAGUUAUCAGGCAUGCACCUGGUAGCUAGUCUUUAAACCAAUAGAUUGCAUCGGUUUAAAAGGCAAGACCGUCAAAUUGCGGGAAAGGGGUCAACAGCCGUUCAGUACCAAGUCUCAGGGGAAACUUUGAGAUGGCCUUGCAAAGGGUAUGGUAAUAAGCUGACGGACAUGGUCCUAACCACGCAGCCAAGUCCUAAGUCAACAGAUCUUCUGUUGAUAUGGAUGCAGUUCACAGACUAAAUGUCGGUCGGGGAAGAUGUAUUCUUCUCAUAAGAUAUAGUCGGACCUCUCCUUAAUGGGAGCUAGCGGAUGAAGUGAUGCAACACUGGAGCCGCUGGGAACUAAUUUGUAUGCGAAAGUAUAUUGAUUAGUUUUGGAGUACUCGUGGUCG
In a few lines: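 Library with all eight P1ex-region intron nucleotides randomised, intron inside the knt kanamycin-resistance gene on pET-22b(+), in E. coli BL21(DE3). Cells grew overnight at 37°C or 30°C on LB agar with or without 25 μg/mL kanamycin (plus 100 μg/mL carbenicillin, 50 μM IPTG, 0.2% rhamnose), in six replicate transformations. Pooled colonies were amplicon-sequenced on Illumina HiSeq 2500. DiMSum fitness is the error-weighted combination of wild-type-normalised replicate fold changes, kanamycin versus none.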

± gives the uncertainty stated by the source.

As to GGUCAGCAAUAUUACGCUGU, the “self-splicing fitness (ln)” value runs as follows: (30 °C) -3.34 ± 0.21; (37 °C) -1.62 ± 0.18.
Take UGUUAGCAAUAUUACGAGCC: the “self-splicing fitness (ln)” value is -2.39 ± 0.22 (30 °C) and -0.493 ± 0.17 (37 °C).
For AAGAAGCAAUAUUACGCUUG, the “self-splicing fitness (ln)” value (30 °C) is -1.23 ± 0.11 and the “self-splicing fitness (ln)” value (37 °C) was -0.951 ± 0.14.
Consider GGAUAGCAAUAUUACGGUGG, for which the “self-splicing fitness (ln)” value is -3.85 ± 0.18 (30 °C) and -2.48 ± 0.14 (37 °C).
For ACAAAGCAAUAUUACGCCUG, in that order: -0.933 ± 0.07 and -0.0625 ± 0.085.
In the case of GGAAAGCAAUAUUACGCUAA, the “self-splicing fitness (ln)” value runs as follows: (30 °C) -0.882 ± 0.25; (37 °C) -1.08 ± 0.27.
For CGCAAGCAAUAUUACGGUGC, in that order: -4.9 ± 0.29 and -2.53 ± 0.23.
On to GAAAAGCAAUAUUACGGACC, for which the “self-splicing fitness (ln)” value (30 °C) is -0.128 ± 0.094 and the “self-splicing fitness (ln)” value (37 °C) is -0.398 ± 0.15.
Regarding ACUAAGCAAUAUUACGCCAU, the “self-splicing fitness (ln)” value (37 °C) was -2.01 ± 0.29.
For ACCCAGCAAUAUUACGACUU, the “self-splicing fitness (ln)” value by setting is: (30 °C) 0.148 ± 0.042; (37 °C) 0.908 ± 0.062.
With GAAAAGCAAUAUUACGGUGU, the “self-splicing fitness (ln)” value reads like this: (30 °C) -2.55 ± 0.096; (37 °C) -0.927 ± 0.11.
For the sequence CUACAGCAAUAUUACGACCG, the “self-splicing fitness (ln)” value is, setting by setting: (30 °C) 0.86 ± 0.11; (37 °C) -0.315 ± 0.14.
For GAAAAGCAAUAUUACGUUCU, in that order: -3.87 ± 0.17 and -3.19 ± 0.18.
Regarding UAUAAGCAAUAUUACGAAUA, the “self-splicing fitness (ln)” value reads like this: (30 °C) -1.55 ± 0.24; (37 °C) -0.822 ± 0.19.
In the case of CACAAGCAAUAUUACGACAC, the “self-splicing fitness (ln)” value runs as follows: (30 °C) -3.12 ± 0.11; (37 °C) -2.59 ± 0.12.
For CAAAAGCAAUAUUACGGGAC, in that order: -3.76 ± 0.35 and -1.71 ± 0.17.
As to UAAAAGCAAUAUUACGACUU, the “self-splicing fitness (ln)” value runs as follows: (30 °C) -0.473 ± 0.098; (37 °C) -0.07 ± 0.15.
GGCGAGCAAUAUUACGAGGU: the “self-splicing fitness (ln)” value runs as follows: (30 °C) -3.57 ± 0.36; (37 °C) -0.907 ± 0.22.
For UGCAAGCAAUAUUACGAUAC, in that order: -2.87 ± 0.23 and -2.24 ± 0.37.
For the sequence UAGGAGCAAUAUUACGACAU, the “self-splicing fitness (ln)” value (30 °C) was -3.83 ± 0.039 and the “self-splicing fitness (ln)” value (37 °C) was -2.8 ± 0.047.
Turning to GUCCAGCAAUAUUACGCUCA, the “self-splicing fitness (ln)” value runs as follows: (30 °C) -0.307 ± 0.092; (37 °C) -0.112 ± 0.11.
As to UAAAAGCAAUAUUACGCAGC, the “self-splicing fitness (ln)” value (37 °C) was -2.47 ± 0.39.
Turning to GGGUAGCAAUAUUACGAGGG, the “self-splicing fitness (ln)” value by setting is: (30 °C) -3.42 ± 0.33; (37 °C) -2.55 ± 0.33.
For GCUUAGCAAUAUUACGGGGA, in that order: -1.05 ± 0.11 and -0.712 ± 0.12.
For CACCAGCAAUAUUACGAUUG, in that order: -0.914 ± 0.046 and -0.088 ± 0.072.
Consider UCACAGCAAUAUUACGCAAU, for which the “self-splicing fitness (ln)” value (37 °C) was -2.13 ± 0.14.
For GCUUAGCAAUAUUACGGUAC, the “self-splicing fitness (ln)” value is, setting by setting: (30 °C) -1.91 ± 0.14; (37 °C) -0.938 ± 0.19.
For the sequence UUGUAGCAAUAUUACGAUAG, the “self-splicing fitness (ln)” value reads like this: (30 °C) -1.52 ± 0.2; (37 °C) -1.16 ± 0.17.
On to ACGAAGCAAUAUUACGAACA, for which the “self-splicing fitness (ln)” value was -1.62 ± 0.13 (30 °C) and -0.229 ± 0.11 (37 °C).
For UAUUAGCAAUAUUACGCGGG, the “self-splicing fitness (ln)” value runs as follows: (30 °C) -2.9 ± 0.18; (37 °C) -1.59 ± 0.23.
For the sequence UGACAGCAAUAUUACGACGG, the “self-splicing fitness (ln)” value by setting is: (30 °C) -0.284 ± 0.11; (37 °C) -0.251 ± 0.11.
On to CCUGAGCAAUAUUACGGUGG, for which the “self-splicing fitness (ln)” value reads like this: (30 °C) -3.67 ± 0.37; (37 °C) -1.4 ± 0.2.
With AAAAAGCAAUAUUACGACAA, the “self-splicing fitness (ln)” value is, setting by setting: (30 °C) -0.322 ± 0.1; (37 °C) 0.331 ± 0.12.
For CGGCAGCAAUAUUACGAUCA, in that order: -1.08 ± 0.11 and -0.194 ± 0.11.

Values taken from the supplement of paper PMC7877785.
